Source: patent publication US20260116991A1 (HAINAN SIMCERE ZAIMING PHARMACEUTICAL, published 2026)

Legend:
[1] = target: T1, GPC3 endogenously expressed on HepG2 cells (UniProt P51654 25-554); assay: FACS on HepG2 cells;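 further: flow cytometric binding of chimeric antibodies to cells, read as mean fluorescence intensity, EC50 obtained by curve fitting of the MFI data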
T1 construct: whole, on cells

[2] = target: T2, human GPC3-His protein (human, UniProt P51654 25-559); assay: ELISA, coated human GPC3, antibody 1 nM;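 further: antigen coated at 1 µg/mL on 96-well plates, antibody bound for 2 h at 37 °C, detected with HRP-labeled secondary antibody and TMB, absorbance read at 450 nm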
T2 construct: Bought protein; also called human GPC3 protein; not shown: His tag

[3] = target: T2, human GPC3-His protein; assay: ELISA, coated human GPC3, antibody 0.01 nM;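 further: Plate-bound antigen coated at 1 µg/mL, antibody incubated 2 h at 37 °C, binding detected by HRP-conjugated secondary antibody with TMB substrate, read as absorbance at 450 nm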
[4] = target: T2, human GPC3-His protein; assay: ELISA, coated human GPC3, antibody 100 nM;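 further: antibodies bound to antigen-coated 96-well plates (1 µg/mL), 2 h at 37 °C, detected with HRP-labelled secondary antibody and TMB substrate, absorbance read at 450 nm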
Method: (§1) The specific method is described as follows: The antigen protein was diluted with PBS to a final concentration of 1 μg/mL, and the diluent was added to a 96-well ELISA plate at 50 μL/well. The plate was sealed with a plastic film and incubated at 4° C. overnight, washed twice with PBS the next day, and a blocking solution [PBS+2% (w/w) BSA] was added for blocking at room temperature for 2 h. […] After incubation at 37° C. for 2 h, the plate was washed 3 times with PBS. A horseradish peroxidase (HRP)-labeled secondary antibody (purchased from Merck, Cat. No. AP113P) was added for incubation at 37° C. for 1 h, and the plate was washed 5 times with PBS. A TMB substrate was added at 50 μL/well for incubation at room temperature for 10 min, then a stop solution (1.0M HCl) was added at 50 μL/well. An ELISA plate reader (Multimode Plate Reader, EnSight, purchased from Perkin Elmer) was used to read OD_{450 nm} values, with results as shown in Table 4 to Table 6, FIG. 1A, FIG. 1B, and FIG. 1C.

[5] = target: T2, human GPC3-His protein; assay: ELISA, coated human GPC3, antibody 0.0001 nM
[6] = target: T2, human GPC3-His protein; assay: ELISA, coated human GPC3, antibody 0.1 nM;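 further: antigen coated on 96-well plates at 1 µg/mL, antibody bound 2 h at 37 °C, detected with HRP-labeled secondary antibody and TMB substrate, acid-stopped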
[7] = target: T2, human GPC3-His protein; assay: ELISA, coated human GPC3, antibody 10 nM;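 further: plate coated with antigen at 1 µg/mL, antibodies bound 2 h at 37 °C, detected via HRP-conjugated secondary antibody and TMB substrate, absorbance read after acid stop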
Method: as §1

[8] = target: T2, human GPC3-His protein; assay: ELISA, coated human GPC3, antibody 0.001 nM
[9] = target: T3, human GPC3 on CHO-K1-human GPC3 cells (clone CHOK1-hGPC3.2B5) (human, UniProt P51654 25-554); assay: FACS on CHOK1-hGPC3.2B5 cells;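 further: flow cytometry binding of chimeric antibodies to the cells, read out as mean fluorescence intensity, with the half-maximal concentration derived by curve fitting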
T3 construct: whole, on cells; Stably transfected CHO-K1 clone 2B5
Method: The desired cells were expanded to a logarithmic growth phase in a T-75 cell culture flask, the medium was removed by pipetting, and the cells were washed twice with a PBS buffer, and digested with trypsin. Then a complete medium was added to stop the digestion, and the cells were blown into a single cell suspension. After counting, the cells were centrifuged, and the cell pellet was resuspended with an FACS buffer (PBS+2% fetal bovine serum) to 2×10⁶ cells/mL. The cell resuspension solution was added to a 96-well FACS reaction plate at 50 μl/well, and a chimeric antibody sample to be tested was added at 50 μl/well for incubation at 4° C. for 1 h. […] After the plate was centrifuged and washed 3 times with a PBS buffer, 100 μl of the resulting solution was assayed and analyzed by FACS (FACS Canto™, purchased from BD Biosciences). Data analysis was performed by software (FlowJo) to obtain the mean fluorescence intensity (MFI) of the cells. Then, analysis was performed by software (GraphPad Prism8), data were fitted, and EC₅₀ values were calculated.

EC50 [1] | Max MFI [1] | OD450 nm [2] | OD450 nm [3] | OD450 nm [4] | OD450 nm [5] | OD450 nm [6] | OD450 nm [7] | OD450 nm [8] | EC50 [9] | Max MFI [9] | Binder
230 pM | 4490 MFI | 2.28 OD450 | 0.32 OD450 | 2.43 OD450 | 0.1 OD450 | 1.45 OD450 | 2.43 OD450 | 0.13 OD450 | 730 pM | 2830 MFI | F2.152.3 human-murine chimeric antibody (antibody, human IgG1, kappa, V domains shown) VH: EVQLQQSGPELVKPGASVKMSCKASGYTFTDYYMTWVKQSHGKSLEWIGRVNPRNGDTTYNQKFEGRATLTLDKSLSTAFMQLNSLTSEDSAVYYCINSKGHFDYWGQGTTLTVSS VL: DVLMTQTPLSLPVSLGDQASISCRSSQSIVHSNGNTYLEWFLQKPGQSPKSLIYKVSNRFSGVPDRFSGSGSGTDFTLKISRVEAEDLGVYYCFQGSHVPPTFGAGTKLELKR
1640 pM | 11300 MFI | 2.16 OD450 | 0.29 OD450 | 2.51 OD450 | 0.1 OD450 | 1.28 OD450 | 2.35 OD450 | 0.12 OD450 | 1480 pM | 23200 MFI | F2.23.8 human-murine chimeric antibody (antibody, human IgG1, kappa, V domains shown) VH: QVQLQQSGAELVRPGASVKLSCKASGYTFTDYEMHWVKQTPVHGLEWFGAIDPETGGTAYNQKFRAKATLTADKSSSTAYMELRSLTSEDSAVYYCTRFYSFAYWGQGTLVTVSA VL: DVVMTQTPLSLPVSLGDQASISCRSSQSLVHSNGNTYLQWYLQKPGQSPKLLIYKVSNRFSGVPDRFSGSGSGTDFTLKITRVEAEDLGVYFCSQSTHVPYTFGSGTKLEIKR
650 pM | 3980 MFI | 2.24 OD450 | 0.27 OD450 | 2.43 OD450 | 0.1 OD450 | 1.25 OD450 | 2.52 OD450 | 0.11 OD450 | 1060 pM | 17300 MFI | F2.169.2 human-murine chimeric antibody (antibody, human IgG1, kappa, V domains shown) VH: EVQLVETGGGLVQPKGSLKLSCAASGFSFNTNAMNWVRQAPGKGLEWVARIRSKSNNYATYYADSVKDRFTISRDDSQSMLYLQMNNLKTEDTAMYYCVRDGYYVLFAYWGQGTLVTVSA VL: DVLMTQTPLSLPVSLGDQASISCRFSQSIVNSNGNTYLEWFLQKPGQSPKLLIYKVSNRFSGVPDRFSGSGSGTDFTLKISRVEAEDLGVYYCFQGSHVPFTFGTGTKLEIKR
2720 pM | 5740 MFI | 2.04 OD450 | 0.19 OD450 | 2.45 OD450 | 0.1 OD450 | 0.87 OD450 | 2.49 OD450 | 0.28 OD450 | 2580 pM | 14100 MFI | F3.81.19 human-murine chimeric antibody (antibody, human IgG1, kappa, V domains shown) VH: QVQLQQSGAELVRPGASVKLSCKASGYTFTDYEMHWVKQTPVHGLEWIGTIDPETGNTAYNQKFKGKATLTADKSSSTAYMELRSLTSEDSAVYYCTRPYSLTYWGQGTLVTVSA VL: DVLLTQTPLSLPVSLGDQASISCRSSQSFVHSNGDTYLQWYLQKPGQSPKLLIYKVSNRFSGVPDRFSGSGSGTDFTLKISRVEAEDLGVYYCFQGSHVPYTFGSGTKLEIKR
1200 pM | 4980 MFI | 2.18 OD450 | 0.38 OD450 | 2.48 OD450 | 0.09 OD450 | 1.62 OD450 | 2.44 OD450 | 0.13 OD450 | 850 pM | 16200 MFI | F3.38.7 human-murine chimeric antibody (antibody, human IgG1, kappa, V domains shown) VH: QVQLQQSGAELVRPGASVKLSCKASGYTFTDYEIHWVKQTPVLGLEWIGAIDPKTGNTAYNQKFMGKATLTADKSSTTAYMDLRSLTSEDSAVYYCTRYFSFAYWGQGTLVTVSA VL: DVLMTQTPLSLPVSLGDQASISCRSSQTFVHSNGNTYLQWYLQKPGQSPKLLIYKVSNRFSGVPDRFSGSGSGTDFTLKISRVEAEDLGVYYCFQGSHVPYTFGSGTKLEIKR
920 pM | 1390 MFI | 1.41 OD450 | 0.26 OD450 | 1.02 OD450 | 0.16 OD450 | 0.83 OD450 | 1.18 OD450 | 0.15 OD450 | 890 pM | 2370 MFI | F4.18.4 human-murine chimeric antibody (antibody, human IgG1, kappa, V domains shown) VH: QVQLHQSGAEMAKPGASVNLSCKTSGFTFTDYGISWVKQRTRQGLEWIGDIYPRHINIYYNEKFKDKATLTADRSSSTAYMELRSMTSEDSAVYFCARRGTTGRGALDYWGQGTSLTVSS VL: DILLTQSPAILSVSPGERVSFSCRASQSIGTSIHWYQQRTNGSPRLLIKYAFESISGIPSRFGGSGSRTDFTLTINSVESEDIADYYCQQTYNWPYTFGGGTKLEIKR
